Experimental data taken from US20250179589A1, “SYNTHETIC LETHALITY AND THE TREATMENT OF CANCER” (PACYLEX PHARMACEUTICALS INC., priority 2012, published 2025).

How the values were obtained:
Jurkat T cells = assay: Effect of HMA on the induction of apoptosis, immunoblot; type: cell-based, human
Description: HMA was saponified and conjugated to bovine serum albumin (BSA) prior to addition to cells to facilitate its cellular uptake as described previously (Yap et al., 2010). Briefly, HMA was incubated with a 20% molar excess of potassium hydroxide (KOH) at 65° C. for 15 min. Subsequently, a 20× solution was made by dissolving the KOH saponified HMA in serum-free RPMI media containing 20% fatty acid-free BSA at 37° C., followed by an additional 15 min incubation at 37° C. Since sodium myristate was used as a control, it was also incubated in serum-free RPMI media containing 20% fatty acid-free BSA at 37° C. prior to addition to cells. Subsequently, Jurkat T cells (1×10^7 cells) were incubated with either 1 mM HMA or 1 mM sodium myristate conjugated to fatty-acid free BSA (final concentration in cell culture 1%) for 1 h at 37° C. in RPMI media (without FBS, supplements or antibiotics). After incubation, apoptosis was induced using anti-Fas (150 ng/mL) or STS (2.5 μM) with cycloheximide (5 μg/mL) or vehicle alone (DMSO). Samples were collected every 2 h for an 8 h period, washed with cold PBS and lysed with 0.3 mL of 1% sodium dodecyl sulfate (SDS)-radio-immuno-precipitation assay (RIPA) buffer and subjected to 2 rounds of sonication for 15 seconds at an output of 5.5-6.5 on a Branson Sonifier and placed on ice for 2 min in between each cycle. […]

[1] = biological target: myristoylatable decapeptide corresponding to the N-terminal sequence of ct-Bid; assay: cell-based or functional assay
[2] = biological target: T1, myristoylatable decapeptide corresponding to the N-terminal sequence of ct-Bid
T1 chain: GNRSSHSRLG

His-NMT1 (recombinant …) = biological target: T2, His-NMT1 (recombinant hexahistidine-tagged full-length human N-myristoyltransferase 1), P30419
T2 chain: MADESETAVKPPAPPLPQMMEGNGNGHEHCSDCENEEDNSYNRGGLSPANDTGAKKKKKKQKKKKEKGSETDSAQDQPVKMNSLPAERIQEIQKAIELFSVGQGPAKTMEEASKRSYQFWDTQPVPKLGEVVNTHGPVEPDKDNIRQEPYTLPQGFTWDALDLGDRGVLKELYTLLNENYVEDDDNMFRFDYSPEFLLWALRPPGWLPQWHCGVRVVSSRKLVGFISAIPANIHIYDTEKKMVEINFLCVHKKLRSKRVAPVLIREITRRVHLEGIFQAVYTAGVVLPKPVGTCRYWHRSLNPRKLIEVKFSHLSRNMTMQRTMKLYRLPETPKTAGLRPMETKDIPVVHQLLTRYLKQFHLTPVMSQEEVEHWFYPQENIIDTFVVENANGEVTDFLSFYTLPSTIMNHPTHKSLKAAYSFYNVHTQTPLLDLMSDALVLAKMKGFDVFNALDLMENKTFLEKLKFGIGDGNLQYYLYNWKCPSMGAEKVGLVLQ

His-NMT2 (recombinant …) = biological target: T3, His-NMT2 (recombinant hexahistidine-tagged full-length human N-myristoyltransferase 2), O60551
T3 chain: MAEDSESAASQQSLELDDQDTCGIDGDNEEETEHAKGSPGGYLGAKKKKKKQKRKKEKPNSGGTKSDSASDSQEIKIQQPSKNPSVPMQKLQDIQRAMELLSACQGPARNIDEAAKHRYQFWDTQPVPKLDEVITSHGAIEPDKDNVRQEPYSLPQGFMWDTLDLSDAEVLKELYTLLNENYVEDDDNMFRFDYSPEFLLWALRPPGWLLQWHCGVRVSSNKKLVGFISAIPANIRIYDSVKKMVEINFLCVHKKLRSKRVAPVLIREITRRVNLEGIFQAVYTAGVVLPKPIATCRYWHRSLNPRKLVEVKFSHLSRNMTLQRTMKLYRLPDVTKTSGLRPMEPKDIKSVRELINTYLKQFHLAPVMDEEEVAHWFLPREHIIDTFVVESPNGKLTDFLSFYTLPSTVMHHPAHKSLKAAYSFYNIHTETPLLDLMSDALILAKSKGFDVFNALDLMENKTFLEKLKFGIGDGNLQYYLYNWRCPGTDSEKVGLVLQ

## CCCCCCCCCCCCC(O)C(=O)O (stereo not shown) [HMA, 2-hydroxymyristic acid]
Jurkat T cells; 1 mM HMA and anti-Fas
  time by which cleavage of PARP-1 occurred sooner than with 1 mM sodium myristate: 2 h
Jurkat T cells; HMA/STS, 2 h post induction
  PARP-1 and PAK2 cleavage vs STS and 1 mM sodium myristate: more PARP-1 and PAK2 cleavage

## V5-NMT1 (N-terminally V5-tagged NMT1) (from UniProt P30419 1-496) (enzyme)
[1]
  NMT activity in lysates of transfected COS-7 cells relative to cells expressing V5-NMT2 (peptide myristoylation assay): 5 fold

B1: His-NMT2 (recombinant hexahistidine-tagged full-length human N-myristoyltransferase 2) (protein)
chain: MAEDSESAASQQSLELDDQDTCGIDGDNEEETEHAKGSPGGYLGAKKKKKKQKRKKEKPNSGGTKSDSASDSQEIKIQQPSKNPSVPMQKLQDIQRAMELLSACQGPARNIDEAAKHRYQFWDTQPVPKLDEVITSHGAIEPDKDNVRQEPYSLPQGFMWDTLDLSDAEVLKELYTLLNENYVEDDDNMFRFDYSPEFLLWALRPPGWLLQWHCGVRVSSNKKLVGFISAIPANIRIYDSVKKMVEINFLCVHKKLRSKRVAPVLIREITRRVNLEGIFQAVYTAGVVLPKPIATCRYWHRSLNPRKLVEVKFSHLSRNMTLQRTMKLYRLPDVTKTSGLRPMEPKDIKSVRELINTYLKQFHLAPVMDEEEVAHWFLPREHIIDTFVVESPNGKLTDFLSFYTLPSTVMHHPAHKSLKAAYSFYNIHTETPLLDLMSDALILAKSKGFDVFNALDLMENKTFLEKLKFGIGDGNLQYYLYNWRCPGTDSEKVGLVLQ
[2]
  NMT activity (filter-based peptide myristoylation assay): both full-length and caspase cleaved truncated NMT1 and NMT2 were catalytically active when compared to the control

B2: recombinant human active caspase-3 (protein)
chain: SGISLDNSYKMDYPEMGLCIIINNKNFHKSTGMTSRSGTDVDAANLRETFRNLKYEVRNKNDLTREEIVELMRDVSKEDHSKRSSFVCVLLSHGEEGIIFGTNGPVDLKKITNFFRGDRCRSLTGKPKLFIIQACRGTELDCGIETDSGVDDDMACHKIPVEADFLYAYSTAPGYYSWRNSKDGSWFIQSLCAMLKQYADKLEFMHILTRVNRKVATEFESFSFDATFHAKKQIPCIVSMLTKELYFYH
His-NMT1 (recombinant …)
  in vitro NMT cleavage assay (Coomassie stained gel): Reconstitution of NMT1 cleavage by caspases-8 and -3, and, NMT2 cleavage by caspase-3 in vitro
His-NMT2 (recombinant …)
  in vitro NMT cleavage assay (Coomassie stained gel): Reconstitution of NMT1 cleavage by caspases-8 and -3, and, NMT2 cleavage by caspase-3 in vitro

B3: His-26NMT2 (His-tagged caspase-cleaved, truncated human NMT2) (protein)
chain: GDNEEETEHAKGSPGGYLGAKKKKKKQKRKKEKPNSGGTKSDSASDSQEIKIQQPSKNPSVPMQKLQDIQRAMELLSACQGPARNIDEAAKHRYQFWDTQPVPKLDEVITSHGAIEPDKDNVRQEPYSLPQGFMWDTLDLSDAEVLKELYTLLNENYVEDDDNMFRFDYSPEFLLWALRPPGWLLQWHCGVRVSSNKKLVGFISAIPANIRIYDSVKKMVEINFLCVHKKLRSKRVAPVLIREITRRVNLEGIFQAVYTAGVVLPKPIATCRYWHRSLNPRKLVEVKFSHLSRNMTLQRTMKLYRLPDVTKTSGLRPMEPKDIKSVRELINTYLKQFHLAPVMDEEEVAHWFLPREHIIDTFVVESPNGKLTDFLSFYTLPSTVMHHPAHKSLKAAYSFYNIHTETPLLDLMSDALILAKSKGFDVFNALDLMENKTFLEKLKFGIGDGNLQYYLYNWRCPGTDSEKVGLVLQ
[2]
  NMT activity (filter-based peptide myristoylation assay): both full-length and caspase cleaved truncated NMT1 and NMT2 were catalytically active when compared to the control
  NMT activity relative to full-length NMT2 (filter-based peptide myristoylation assay): ˜3-fold (His-26NMT2) ... more activity when compared to full-length NMT2

B4: His-68NMT2 (His-tagged caspase-cleaved, truncated human NMT2) (protein)
chain: SASDSQEIKIQQPSKNPSVPMQKLQDIQRAMELLSACQGPARNIDEAAKHRYQFWDTQPVPKLDEVITSHGAIEPDKDNVRQEPYSLPQGFMWDTLDLSDAEVLKELYTLLNENYVEDDDNMFRFDYSPEFLLWALRPPGWLLQWHCGVRVSSNKKLVGFISAIPANIRIYDSVKKMVEINFLCVHKKLRSKRVAPVLIREITRRVNLEGIFQAVYTAGVVLPKPIATCRYWHRSLNPRKLVEVKFSHLSRNMTLQRTMKLYRLPDVTKTSGLRPMEPKDIKSVRELINTYLKQFHLAPVMDEEEVAHWFLPREHIIDTFVVESPNGKLTDFLSFYTLPSTVMHHPAHKSLKAAYSFYNIHTETPLLDLMSDALILAKSKGFDVFNALDLMENKTFLEKLKFGIGDGNLQYYLYNWRCPGTDSEKVGLVLQ
[2]
  NMT activity (filter-based peptide myristoylation assay): both full-length and caspase cleaved truncated NMT1 and NMT2 were catalytically active when compared to the control
  NMT activity relative to full-length NMT2 (filter-based peptide myristoylation assay): ˜4-fold (His-68NMT2) more activity when compared to full-length NMT2

B5: His-73NMT1 (His-tagged caspase-cleaved, truncated human NMT1) (protein)
chain: SAQDQPVKMNSLPAERIQEIQKAIELFSVGQGPAKTMEEASKRSYQFWDTQPVPKLGEVVNTHGPVEPDKDNIRQEPYTLPQGFTWDALDLGDRGVLKELYTLLNENYVEDDDNMFRFDYSPEFLLWALRPPGWLPQWHCGVRVVSSRKLVGFISAIPANIHIYDTEKKMVEINFLCVHKKLRSKRVAPVLIREITRRVHLEGIFQAVYTAGVVLPKPVGTCRYWHRSLNPRKLIEVKFSHLSRNMTMQRTMKLYRLPETPKTAGLRPMETKDIPVVHQLLTRYLKQFHLTPVMSQEEVEHWFYPQENIIDTFVVENANGEVTDFLSFYTLPSTIMNHPTHKSLKAAYSFYNVHTQTPLLDLMSDALVLAKMKGFDVFNALDLMENKTFLEKLKFGIGDGNLQYYLYNWKCPSMGAEKVGLVLQ
[2]
  NMT activity (filter-based peptide myristoylation assay): both full-length and caspase cleaved truncated NMT1 and NMT2 were catalytically active when compared to the control

B6: His-NMT1 (recombinant hexahistidine-tagged full-length human N-myristoyltransferase 1) (protein)
chain: MADESETAVKPPAPPLPQMMEGNGNGHEHCSDCENEEDNSYNRGGLSPANDTGAKKKKKKQKKKKEKGSETDSAQDQPVKMNSLPAERIQEIQKAIELFSVGQGPAKTMEEASKRSYQFWDTQPVPKLGEVVNTHGPVEPDKDNIRQEPYTLPQGFTWDALDLGDRGVLKELYTLLNENYVEDDDNMFRFDYSPEFLLWALRPPGWLPQWHCGVRVVSSRKLVGFISAIPANIHIYDTEKKMVEINFLCVHKKLRSKRVAPVLIREITRRVHLEGIFQAVYTAGVVLPKPVGTCRYWHRSLNPRKLIEVKFSHLSRNMTMQRTMKLYRLPETPKTAGLRPMETKDIPVVHQLLTRYLKQFHLTPVMSQEEVEHWFYPQENIIDTFVVENANGEVTDFLSFYTLPSTIMNHPTHKSLKAAYSFYNVHTQTPLLDLMSDALVLAKMKGFDVFNALDLMENKTFLEKLKFGIGDGNLQYYLYNWKCPSMGAEKVGLVLQ
[2]
  NMT activity (filter-based peptide myristoylation assay): both full-length and caspase cleaved truncated NMT1 and NMT2 were catalytically active when compared to the control

B7: recombinant human active caspase-8 (protein)
chain: SESQTLDKVYQMKSKPRGYCLIINNHNFAKAREKVPKLHSIRDRNGTHLDAGALTTTFEELHFEIKPHDDCTVEQIYEILKIYQLMDHSNMDCFICCILSHGDKGIIYGTDGQEAPIYELTSQFTGLKCPSLAGKPKVFFIQACQGDNYQKGIPVETDSEEQPYLEMDLSSPQTRYIPDEADFLLGMATVNNCVSYRNPAEGTWYIQSLCQSLRERCPRGDDILTILTEVNYEVSNKDDKKNMGKQMPQPTFTLRKKLVFPSD
His-NMT1 (recombinant …)
  in vitro NMT cleavage assay (Coomassie stained gel): Reconstitution of NMT1 cleavage by caspases-8 and -3, and, NMT2 cleavage by caspase-3 in vitro
